Publication PMC2957810 (Traffic (Copenhagen, Denmark), 2009)

How the values were obtained:
Assay in all cases: co-IP
[1] = biological target: pro-ALP (yeast vacuolar alkaline phosphatase, pro-form) (S. cerevisiae) (UniProt P11491)
[2] = biological target: Δ79-82ALP (dimerization mutant of pro-ALP) (S. cerevisiae) (UniProt P11491)
co-IP = biological target: the molecule itself

Molecule | percent of total Erv26p recovered in the IP [1] | percent of total Erv26p recovered in the IP [2] | ratio of untagged to HA-tagged pro-ALP immunoprecipitated (co-IP)
Erv26p (receptor) | 2.5% | 1% | –
pro-ALP (yeast vacuolar alkaline phosphatase, pro-form) (natural protein, S. cerevisiae, UniProt P11491 1-566, looked up) MMTHTLPSEQTRLVPGSDSSSRPKKRRISKRSKIIVSTVVCIGLLLVLVQLAFPSSFALRSASHKKKNVIFFVTDGMGPASLSMARSFNQHVNDLPIDDILTLDEHFIGSSRTRSSDSLVTDSAAGATAFACALKSYNGAIGVDPHHRPCGTVLEAAKLAGYLTGLVVTTRITDATPASFSSHVDYRWQEDLIATHQLGEYPLGRVVDLLMGGGRSHFYPQGEKASPYGHHGARKDGRDLIDEAQSNGWQYVGDRKNFDSLLKSHGENVTLPFLGLFADNDIPFEIDRDEKEYPSLKEQVKVALGALEKASNEDKDSNGFFLMVEGSRIDHAGHQNDPASQVREVLAFDEAFQYVLEFAENSDTETVLVSTSDHETGGLVTSRQVTASYPQYVWYPQVLANATHSGEFLKRKLVDFVHEHKGASSKIENFIKHEILEKDLGIYDYTDSDLETLIHLDDNANAIQDKLNDMVSFRAQIGWTTHGHSAVDVNIYAYANKKATWSYVLNNLQGNHENTEVGQFLENFLELNLNEVTDLIRDTKHTSDFDATEIASEVQHYDEYYHELTN | – | – | 0.38
Δ79-82ALP (dimerization mutant of pro-ALP) (natural protein, S. cerevisiae, UniProt P11491 1-566, looked up) MMTHTLPSEQTRLVPGSDSSSRPKKRRISKRSKIIVSTVVCIGLLLVLVQLAFPSSFALRSASHKKKNVIFFVTDGMGSMARSFNQHVNDLPIDDILTLDEHFIGSSRTRSSDSLVTDSAAGATAFACALKSYNGAIGVDPHHRPCGTVLEAAKLAGYLTGLVVTTRITDATPASFSSHVDYRWQEDLIATHQLGEYPLGRVVDLLMGGGRSHFYPQGEKASPYGHHGARKDGRDLIDEAQSNGWQYVGDRKNFDSLLKSHGENVTLPFLGLFADNDIPFEIDRDEKEYPSLKEQVKVALGALEKASNEDKDSNGFFLMVEGSRIDHAGHQNDPASQVREVLAFDEAFQYVLEFAENSDTETVLVSTSDHETGGLVTSRQVTASYPQYVWYPQVLANATHSGEFLKRKLVDFVHEHKGASSKIENFIKHEILEKDLGIYDYTDSDLETLIHLDDNANAIQDKLNDMVSFRAQIGWTTHGHSAVDVNIYAYANKKATWSYVLNNLQGNHENTEVGQFLENFLELNLNEVTDLIRDTKHTSDFDATEIASEVQHYDEYYHELTN | – | – | 0.05
